The values that follow come from patent US20250304666A1 (ALCHEMAB THERAPEUTICS, published 2025).

One assay has as its target T1, reduced CFH (Homo sapiens (Human), UniProt P08603 860-1231, limits assumed).
T1 construct: also called CFH (reduced)
T1 sequence: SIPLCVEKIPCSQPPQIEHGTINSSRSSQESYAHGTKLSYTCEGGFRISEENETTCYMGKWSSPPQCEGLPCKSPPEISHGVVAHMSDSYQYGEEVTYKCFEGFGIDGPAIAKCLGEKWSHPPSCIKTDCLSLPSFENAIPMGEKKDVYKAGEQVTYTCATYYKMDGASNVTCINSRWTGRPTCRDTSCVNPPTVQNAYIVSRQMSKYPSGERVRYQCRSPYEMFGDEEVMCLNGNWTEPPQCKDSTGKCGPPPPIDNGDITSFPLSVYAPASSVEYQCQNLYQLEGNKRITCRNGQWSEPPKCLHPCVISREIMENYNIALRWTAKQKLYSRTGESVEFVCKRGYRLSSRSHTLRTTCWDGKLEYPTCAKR
Put plainly: ELISA, reduced antigen.

The next assay deals with T2, reduced CFHR5 (UniProt Q9BXR6 19-569, limits assumed).
T2 sequence (looked up): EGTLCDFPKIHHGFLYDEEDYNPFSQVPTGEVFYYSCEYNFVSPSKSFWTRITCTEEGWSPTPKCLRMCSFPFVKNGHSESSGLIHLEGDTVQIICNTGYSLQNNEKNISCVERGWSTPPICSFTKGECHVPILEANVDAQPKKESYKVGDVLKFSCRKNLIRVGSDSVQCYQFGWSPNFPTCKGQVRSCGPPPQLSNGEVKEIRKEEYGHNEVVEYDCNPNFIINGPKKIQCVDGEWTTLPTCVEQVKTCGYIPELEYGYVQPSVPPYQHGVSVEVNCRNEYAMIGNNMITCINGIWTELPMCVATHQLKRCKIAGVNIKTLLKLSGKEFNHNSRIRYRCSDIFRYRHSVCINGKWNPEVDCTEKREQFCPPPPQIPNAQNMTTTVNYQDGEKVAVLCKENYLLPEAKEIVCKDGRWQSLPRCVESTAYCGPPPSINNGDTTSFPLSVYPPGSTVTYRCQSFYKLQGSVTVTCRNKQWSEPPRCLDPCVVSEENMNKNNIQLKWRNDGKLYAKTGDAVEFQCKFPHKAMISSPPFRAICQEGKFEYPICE
Put plainly: ELISA, reduced antigen.

For a further assay, the target named is T3, reduced CFHR1 (UniProt Q03591 19-330, limits assumed).
T3 sequence (looked up): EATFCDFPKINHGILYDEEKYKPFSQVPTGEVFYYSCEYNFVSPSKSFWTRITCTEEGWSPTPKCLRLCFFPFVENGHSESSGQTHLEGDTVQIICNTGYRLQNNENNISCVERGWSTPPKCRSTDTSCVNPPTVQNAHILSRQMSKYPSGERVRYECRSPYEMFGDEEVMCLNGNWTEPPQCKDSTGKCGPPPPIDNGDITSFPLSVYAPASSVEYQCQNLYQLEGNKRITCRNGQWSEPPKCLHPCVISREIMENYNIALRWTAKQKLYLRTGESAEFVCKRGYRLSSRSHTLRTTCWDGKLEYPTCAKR
Put plainly: ELISA, reduced antigen.

Another assay concerns the target T4, reduced CFHR2 (UniProt P36980 19-270, limits assumed).
T4 sequence (looked up): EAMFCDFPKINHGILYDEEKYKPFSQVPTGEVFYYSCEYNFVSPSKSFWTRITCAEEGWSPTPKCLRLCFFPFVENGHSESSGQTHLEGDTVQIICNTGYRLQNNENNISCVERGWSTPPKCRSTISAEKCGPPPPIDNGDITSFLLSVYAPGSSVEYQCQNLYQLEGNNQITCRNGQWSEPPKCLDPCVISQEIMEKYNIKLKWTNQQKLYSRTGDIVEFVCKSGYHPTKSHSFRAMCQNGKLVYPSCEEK
The assay is described as follows: ELISA, reduced antigen.

A further assay has as its target T5, reduced CFHR3 (UniProt Q02985 19-330, limits assumed).
T5 sequence (looked up): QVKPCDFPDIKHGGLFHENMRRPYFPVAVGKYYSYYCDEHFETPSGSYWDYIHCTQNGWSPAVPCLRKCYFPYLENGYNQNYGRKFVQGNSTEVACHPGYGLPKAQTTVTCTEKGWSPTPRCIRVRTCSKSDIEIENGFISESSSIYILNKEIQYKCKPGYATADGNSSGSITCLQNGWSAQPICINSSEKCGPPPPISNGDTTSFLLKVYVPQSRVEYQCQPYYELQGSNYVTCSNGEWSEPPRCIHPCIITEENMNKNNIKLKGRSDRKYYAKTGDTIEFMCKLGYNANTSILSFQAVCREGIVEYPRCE
The assay is described as follows: ELISA, reduced antigen.

A further assay addresses T6, non-reduced CFHR1.
T6 construct: also called CFHR1 (NON-REDUCED)
T6 chain: T3 sequence (looked up)
Put plainly: ELISA, non-reduced antigen.

The target in a further assay is T7, non-reduced CFHR5.
T7 construct: also called CFHR5 (NON-REDUCED)
T7 chain: T2 sequence (looked up)
Put plainly: ELISA, non-reduced antigen.

For the next assay, the target named is T8, non-reduced CFHR2.
T8 construct: also called CFHR2 (NON-REDUCED)
T8 chain: T4 sequence (looked up)
The assay is described as follows: ELISA, non-reduced antigen.

Another assay addresses T9, non-reduced CFHR4.
T9 construct: not reduced; also called CFHR4 (NON-REDUCED)
The assay is described as follows: ELISA, non-reduced antigen.

Where a chain is given by its changes, count along the chain named.

B1: ATL4717 (antibody, human IgG1, kappa, V domains shown)
VH: QVQLVESGGGMVQPGRSLRLSCAASGFTFSIYGMHWVRQAPGRGLEWVAVMSFDGKTKYYADSVKGRFTISRDNSKNTLYLQMNSLRRVDTAVYYCAKGGATAAVFDSWGQGTLVTVSS
VL: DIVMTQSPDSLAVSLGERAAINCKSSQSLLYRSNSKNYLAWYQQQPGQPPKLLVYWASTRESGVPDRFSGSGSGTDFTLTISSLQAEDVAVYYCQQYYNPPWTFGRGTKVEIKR
notes: Human IgG1; also called ATL0004717; ATL04717
For B1, the “fold change vs isotype at 1 ug/ml” value with reduced CFH amounted to 17.6 fold; with reduced CFHR5, 1 fold; with reduced CFHR1, 23.8 fold; in the assay with reduced CFHR2, 10.7 fold; with reduced CFHR3, 0.9 fold; in the assay with non-reduced CFHR1 it was 10.7 fold. Besides, the “fold change vs isotype at 1 ug/ml” value in the assay with non-reduced CFHR5 came out at 0.9 fold; with non-reduced CFHR2, 4.3 fold; with non-reduced CFHR4, 0.9 fold. Further, the binding result with reduced CFHR5, with reduced CFHR3 and with non-reduced CFHR5 was “no binding (tested: 1 ug/ml)” throughout.

B2: ATL5170 (antibody, human IgG1, kappa, V domains shown)
VH: B1 VH with M11V, I31N, R43K, M51T, R88A, V89E, F106L
VL: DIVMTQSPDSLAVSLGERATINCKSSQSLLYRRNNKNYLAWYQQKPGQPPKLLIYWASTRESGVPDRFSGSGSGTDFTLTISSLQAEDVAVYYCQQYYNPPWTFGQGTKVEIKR
notes: IgG1; also called ATL_0005170
In the case of B2, the “fold change vs isotype at 1 ug/ml” value was 18.1 fold in the assay with reduced CFH; 1.1 fold with reduced CFHR5; 23.1 fold with reduced CFHR1; 8.4 fold in the assay with reduced CFHR2; 1 fold with reduced CFHR3; 8.4 fold with non-reduced CFHR1. Also, the “fold change vs isotype at 1 ug/ml” value with non-reduced CFHR5 amounted to 1 fold; with non-reduced CFHR2 it was 1.3 fold; in the assay with non-reduced CFHR4, 0.9 fold. For the same molecule, the binding result in the assay with non-reduced CFHR5 is listed as “no binding (tested: 1 ug/ml)”.
